# According to the RNAGym collection of RNA variant scans (doi:10.7554/elife.80360):
# B1: HDV Ribozyme (parent)
# chain: GGCCGGCAUGGUCCCAGCCUCCUCGCUGGCGCCGGCUGGGCAACAUUCCGAGGGGACCGUCCCCUCGGUAAUGGCGAAUGGGACCCA
# Variants of: B1
# Test: self-cleavage, relative activity (ratio to wild type); higher = more cleavage; co-transcriptional
row,Variant,self-cleavage
1,C13G U23G,0
2,C13G G55A,0.0875
3,C14G G38A,0.0831
4,C13G A77U,0.119
5,C14A C18A,0
6,C15A C36G,0.145
7,C13G G82A,0.0519
8,C13U C18G,0.0332
9,C13U C18U,0.295
10,C14U C58A,1.13
11,C14A C66U,1.03
12,C13A U20G,0.0594
13,C13A U20A,0.0811
14,C13G U37C,0.237
15,C13U G55C,0.658
16,C13G G17C,0.138
17,C13U U27A,1.29
18,C14A G74C,0.185
19,C14A G55A,0.814
20,C14G A78U,0.185
21,C14G C66G,0.391
22,C14A A77U,0.237
23,C14U C61G,1.08
24,C15A A78C,0.0652

row,Variant,self-cleavage
1,C15A C85G,0.739
2,C14U A87C,1.12
3,C14U A87U,1.08
4,C13U C48U,0.642
5,C14U U69C,1.4
6,C13U G38C,0.0554
7,C13G C85U,0
8,C13G C85A,0
9,C14A A71C,0.166
10,C13G C15G,0.122
11,C13U C64U,0.554
12,C14U G81A,1.32
13,C14U G40C,0.391
14,C13G G39C,0.0462
15,C13G G39U,0.0361
16,C14U A77U,0.573
17,C15A G31A,0.16
18,C15A G31C,0
19,C13U C86U,1.1
20,C13U C62G,0.554
21,C14A G34A,0.185
22,C14U G28U,0.285
23,C13G U72G,0.0923
24,C13U G25A,0.122

row,Variant,self-cleavage
1,C14G C64G,0.485
2,C13A U27G,0.594
3,C13A U27C,0.594
4,C13G G59C,0.104
5,C13G A56G,0.0536
6,C15A C86A,0.665
7,C14A U23C,0.997
8,C14A U65C,0.864
9,C13G C32G,0
10,C13A U69G,0.314
11,C14G G17U,0.323
12,C13G C30G,0.0426
13,C13G C30U,0.26
14,C13G C30A,0.0978
15,C15A C19U,0.089
16,C15A C19G,0.0519
17,C13A U79G,0.151
18,C13G G67A,0.138
19,C14U G25C,0.199
20,C14U G38U,0.271
21,C13G C49G,0.356
22,C13U A71C,0.639
23,C13U C84U,0.361
24,C14G C62G,0.0831

row,Variant,self-cleavage
1,C13U G53C,0.831
2,C14A G54A,0.751
3,C13U G81A,0.189
4,C13G A45C,0.0639
5,C13A G82U,0.904
6,C14G A16C,0.0875
7,C14G A16U,0.791
8,C13U A43C,0.0791
9,C13U A43U,0.151
10,C13U C36A,0.132
11,C13U C36G,0.0723
12,C15A C63U,0.649
13,C14U G76C,1.06
14,C14A G82C,0.172
15,C14U G74U,0.733
16,C14U G54U,1.23
17,C14G C32G,0
18,C14G C32A,0.0554
19,C14U C30A,0.675
20,C14U C30U,0.489
21,C13U G76A,0.743
22,C13G C63U,0
23,C14U C75A,0.208
24,C14G C36U,0.375

row,Variant,self-cleavage
1,C14A G67C,0.554
2,C14U C66U,1.25
3,C14G C61G,0.782
4,C15A G25U,0.0791
5,C15A C84A,0.539
6,C13U C19A,0.138
7,C13U C19U,0.0475
8,C14U C48U,1.02
9,C14G G67A,0.453
10,C15A C33U,0.427
11,C13G U69A,0.0437
12,C13G C19A,0.0437
13,C13G C19U,0.0396
14,C13G C41U,0
15,C13U C21U,0.0563
16,C14U C57U,0.878
17,C14U C57G,0.787
18,C14A C61G,0.997
19,C14A U72C,0.378
20,C14G U20G,0.151
21,C13U A70G,0.475
22,C14U G82A,0.323
23,C15A A16G,0.35
24,C15A A16U,0.499

row,Variant,self-cleavage
1,C15A G28U,0.0615
2,C13G C21A,0
3,C14U A42G,0.959
4,C13G U79C,0
5,C13U C33A,0.0923
6,C13G C24G,0
7,C14G C75A,0.111
8,C14G G80U,0.261
9,C14U C15U,0.665
10,C13U C24U,0.262
11,C13U A16U,1.11
12,C14G G73C,0.0504
13,C14G G73A,0.222
14,C14A C32G,0.0573
15,C14U G50U,1.09
16,C14U G50C,1.11
17,C14A G31C,0.0678
18,C14A C19A,0.0639
19,C13G G28C,0.0504
20,C13G G28A,0
21,C14G U69G,0.604
22,C13U C30U,0.261
23,C13U C30G,0.198
24,C13G C14G,0.166

row,Variant,self-cleavage
1,C14U G59C,1.01
2,C14U C18U,0.591
3,C13A U65C,0.203
4,C14A A70C,0.467
5,C14A C49A,0.782
6,C14G C21G,0.0449
7,C13U C49A,0.727
8,C14A C64U,0.743
9,C13G C44G,0
10,C14U U37C,1.32
11,C14G C48A,0.723
12,C14G C48U,0.831
13,C13G C66G,0.135
14,C13G C66U,0.0692
15,C14U C32U,0.86
16,C15A,0.698
17,C14A U27A,0.739
18,C14G G28U,0.107
19,C14G U23A,0.68
20,C14G U65G,0.665
21,C14U U20C,0.133
22,C14G U47A,0
23,C13G G40C,0.0396
